Laboratory results published in PMC9691347, “C9orf72 regulates the unfolded protein response and stress granule formation by interacting with eIF2α” (Theranostics, 2022).

Biological target: T1, MBP-tagged eIF2α (MBP-eIF2α) (human, UniProt P05198 1-315)
T1 construct: full-length human EIF2S1 cDNA in pMAL-c2x; source: Rosetta E. coli, purified (dextrin beads 6FF)
Assay: pull-down; 0.5 µg purified GST or GST-tagged proteins on glutathione magnetic beads, incubated with 0.5 µg purified MBP or MBP-eIF2α for 4 h at 4°C; six washes with 400 mM NaCl, 0.5% Triton X-100; western blot
Settings: both partners purified

T1 sequence (P05198 whole entry): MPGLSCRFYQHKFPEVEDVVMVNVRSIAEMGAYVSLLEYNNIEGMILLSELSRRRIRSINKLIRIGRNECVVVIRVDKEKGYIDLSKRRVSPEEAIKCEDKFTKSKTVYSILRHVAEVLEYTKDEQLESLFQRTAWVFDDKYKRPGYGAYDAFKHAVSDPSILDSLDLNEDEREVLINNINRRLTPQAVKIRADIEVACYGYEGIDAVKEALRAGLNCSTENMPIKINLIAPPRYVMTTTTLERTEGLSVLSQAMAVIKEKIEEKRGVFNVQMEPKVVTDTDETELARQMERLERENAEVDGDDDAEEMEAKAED

B1: GST-tagged C9orf72 short protein isoform (GST-C9S) (natural protein, human, UniProt Q96LT7-2 1-222, looked up)
chain: MSTLCPPPSPAVAKTEIALSGKSPLLAATFAYWDNILGPRVRHIWAPKTEQVLLSDGEITFLANHTLNGEILRNAESGAIDVKFFVLSEKGVIIVSLIFDGNWNGDRSTYGLSIILPQTELSFYLPLHRVCVDRLTHIIRKGRIWMHKERQENVQKIILEGTERMEDQGQSIIPMLTGEVIPVMELLSSMKSHSVPEEIDIADTVLNDDDIGDSCHEGFLLK
notes: human C9orf72 short protein isoform, 222 aa, encoded by exons 2-5; pGEX-6P-1 vector; source: Rosetta E. coli, purified (glutathione magnetic beads)
B1: binds.
